Paper PMC1920236 (Nucleic Acids Research, 2007)
Numbering of substitutions follows the chain as printed. Names may count otherwise. Where two headings read alike, the source gives them in different places.

T1: IRF-3 5D (UniProt Q14653 1-427, S396D;S398D;S402D;T404D;S405D)
T1 sequence: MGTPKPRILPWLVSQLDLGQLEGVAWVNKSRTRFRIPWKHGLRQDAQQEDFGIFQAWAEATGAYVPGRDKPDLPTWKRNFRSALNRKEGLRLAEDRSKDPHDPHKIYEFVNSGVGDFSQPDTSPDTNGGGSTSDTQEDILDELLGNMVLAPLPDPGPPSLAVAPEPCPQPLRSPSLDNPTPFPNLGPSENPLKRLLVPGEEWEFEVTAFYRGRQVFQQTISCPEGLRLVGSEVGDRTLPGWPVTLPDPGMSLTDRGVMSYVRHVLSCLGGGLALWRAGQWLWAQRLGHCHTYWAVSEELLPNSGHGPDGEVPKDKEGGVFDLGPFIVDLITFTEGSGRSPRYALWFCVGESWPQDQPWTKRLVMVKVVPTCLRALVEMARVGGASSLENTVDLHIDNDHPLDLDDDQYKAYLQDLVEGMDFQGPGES

T2: IRF-3 WT (UniProt Q14653 1-427)
T2 sequence: T1 sequence with D396S, D398S, D402S, D404T, D405S

T3: IRF-3 2D (UniProt Q14653 1-427, S396D;S398D)
T3 sequence: T1 sequence with D402S, D404T, D405S

B1: IRF-3 5D phosphomimetic mutant (S396D, S398D, S402D, T404D and S405D) (natural protein)
chain: T1 sequence
B2: PRDIII-PRDI 26-bp (dsDNA)
DNA 1: GCGAACTGAAAGGGAGAAGTGAAAGT
DNA 2: ACTTTCACTTCTCCCTTTCAGTTCGC
B3: PRDI 13-bp (dsDNA)
DNA 1: GAGAAGTGAAAGT
DNA 2: ACTTTCACTTCTC

Experiments:
native gel or EMSA = target: the molecule itself; experiment: native gel or EMSA
IRF-3 5D [1] = target: T1, IRF-3 5D; experiment: fluorescence anisotropy
IRF-3 WT = target: T2, IRF-3 WT; experiment: fluorescence anisotropy
IRF-3 2D = target: T3, IRF-3 2D; experiment: fluorescence anisotropy
IRF-3 5D [2] = target: T1, IRF-3 5D; experiment: fluorescence anisotropy; remark: listed apart in the source

Binder	stoichiometry N (native gel or EMSA)	Kd (IRF-3 5D [1]) [nM]	Kd (IRF-3 WT) [nM]	Kd (IRF-3 2D) [nM]	Kd (IRF-3 5D [2]) [nM]
B1	2	–	–	–	–
B2	–	5.8 ± 0.8	1230 ± 15	1300 ± 15	–
B3	–	–	800 ± 17	900 ± 15	1200 ± 20
